Values quoted from earlier work as cited in PMC3135726.

Assays:
PTHrP (Homo sapiens) = PTHrP (Homo sapiens) (UniProt P12272)
[1] = target: Snurportin1 IBB (Homo sapiens) (UniProt O95149)
[2] = target: Importin-α IBB (Homo sapiens) (UniProt P52292)
[3] = target: hnRNP M PY-NLS (Homo sapiens) (UniProt P52272)
[4] = target: hnRNP A1 PY-NLS (Homo sapiens) (UniProt P09651)
hnRNP A1 PY-NLS (Homo sapiens), sequence (P09651 320-357): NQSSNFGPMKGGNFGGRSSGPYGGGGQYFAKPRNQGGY

Importin-β, sequence (Q14974 whole entry): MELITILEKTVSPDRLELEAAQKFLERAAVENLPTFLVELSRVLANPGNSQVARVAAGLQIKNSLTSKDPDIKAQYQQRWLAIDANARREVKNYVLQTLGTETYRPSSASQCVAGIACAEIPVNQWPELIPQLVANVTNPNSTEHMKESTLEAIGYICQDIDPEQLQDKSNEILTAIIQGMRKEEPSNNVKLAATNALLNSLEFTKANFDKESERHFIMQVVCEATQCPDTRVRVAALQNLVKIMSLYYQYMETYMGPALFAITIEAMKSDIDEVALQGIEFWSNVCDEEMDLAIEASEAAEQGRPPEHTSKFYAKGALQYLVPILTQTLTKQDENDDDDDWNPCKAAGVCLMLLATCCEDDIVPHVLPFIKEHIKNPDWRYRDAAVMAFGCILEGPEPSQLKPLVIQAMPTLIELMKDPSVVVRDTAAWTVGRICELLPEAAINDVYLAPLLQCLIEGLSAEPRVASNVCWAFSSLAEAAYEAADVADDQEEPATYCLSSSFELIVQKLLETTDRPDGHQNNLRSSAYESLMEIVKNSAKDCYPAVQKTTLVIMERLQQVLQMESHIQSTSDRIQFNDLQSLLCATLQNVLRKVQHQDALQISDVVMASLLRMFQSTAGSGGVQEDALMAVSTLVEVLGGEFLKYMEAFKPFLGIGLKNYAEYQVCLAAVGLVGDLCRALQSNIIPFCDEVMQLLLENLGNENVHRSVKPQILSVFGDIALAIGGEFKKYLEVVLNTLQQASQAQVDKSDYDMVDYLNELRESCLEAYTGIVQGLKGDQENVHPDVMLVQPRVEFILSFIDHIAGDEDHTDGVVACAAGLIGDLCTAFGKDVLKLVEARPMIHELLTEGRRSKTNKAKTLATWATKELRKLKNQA
Kapβ2, sequence (Q92973 whole entry): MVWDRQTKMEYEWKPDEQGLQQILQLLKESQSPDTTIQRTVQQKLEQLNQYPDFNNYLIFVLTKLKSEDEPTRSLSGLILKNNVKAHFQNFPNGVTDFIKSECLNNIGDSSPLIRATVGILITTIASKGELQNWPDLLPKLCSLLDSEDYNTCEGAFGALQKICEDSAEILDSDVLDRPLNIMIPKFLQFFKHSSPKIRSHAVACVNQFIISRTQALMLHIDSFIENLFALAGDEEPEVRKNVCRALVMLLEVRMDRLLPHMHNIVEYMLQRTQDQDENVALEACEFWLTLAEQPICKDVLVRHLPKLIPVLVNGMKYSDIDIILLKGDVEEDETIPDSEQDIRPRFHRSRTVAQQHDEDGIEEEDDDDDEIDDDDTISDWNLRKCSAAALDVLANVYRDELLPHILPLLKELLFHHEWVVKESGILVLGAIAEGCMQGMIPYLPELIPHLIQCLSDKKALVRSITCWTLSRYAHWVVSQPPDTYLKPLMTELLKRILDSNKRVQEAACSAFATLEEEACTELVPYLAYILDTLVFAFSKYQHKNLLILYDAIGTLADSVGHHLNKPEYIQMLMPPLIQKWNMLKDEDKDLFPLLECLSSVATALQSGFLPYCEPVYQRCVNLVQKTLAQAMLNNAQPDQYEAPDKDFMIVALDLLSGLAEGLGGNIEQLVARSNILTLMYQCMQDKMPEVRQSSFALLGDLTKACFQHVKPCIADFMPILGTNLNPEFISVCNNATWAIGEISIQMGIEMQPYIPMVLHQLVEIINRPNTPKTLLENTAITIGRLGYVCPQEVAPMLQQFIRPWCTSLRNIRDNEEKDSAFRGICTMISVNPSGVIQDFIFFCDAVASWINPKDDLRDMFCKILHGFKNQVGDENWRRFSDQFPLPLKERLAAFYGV
Snurportin1 IBB (Homo sapiens), sequence (O95149 8-76): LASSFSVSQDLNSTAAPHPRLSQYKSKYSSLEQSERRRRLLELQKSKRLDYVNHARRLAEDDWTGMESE
hnRNP M PY-NLS (Homo sapiens), sequence (P52272 41-70): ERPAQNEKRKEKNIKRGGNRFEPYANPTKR
PTHrP (Homo sapiens), sequence (P12272 37-72): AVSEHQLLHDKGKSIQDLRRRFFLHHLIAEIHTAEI

Substance | Kd (PTHrP (Homo sapiens)) [nM] | Kd [1] [nM] | Kd [2] [nM] | Kd [3] [nM] | Kd [4] [nM]
Importin-β (from UniProt Q14974) | 2 | 2 | 2 |  | 
Kapβ2 (from UniProt Q92973) |  |  |  | 10 | 42
